# In article PMC4703389:
# Experiments:
# 7D8-E345K (human) = assay: dynamic light scattering; 7D8 and mutants in PBS pH 7.4 up to 100 mg/mL, 25°C; linear regression of diffusion coefficient versus antibody concentration; self-association
# 7D8-E430G (human) = assay: as above
interaction parameter from regression of the diffusion coefficient versus concentration (7D8-E345K (human)),interaction parameter from regression of the diffusion coefficient versus concentration (7D8-E430G (human)),Substance
-0.0174 mL/g,–,7D8-E345K (antibody)
–,-0.0126 mL/g,7D8-E430G (antibody)
